Read-outs that look alike come from different tables or passages of the source.
Tests used:
[1] = tested on: HCV ORFs (Gal4-DB fusions); assay type: binding, HCV genotype 1b, isolate con1; conditions: human protein listed by gene symbol; the value names the HCV protein it interacts with
[2] = target: T1, HCV ORFs (Gal4-DB fusions) (Hepatitis C virus genotype 1b, UniProt Q9WMX2); assay type: binding, HCV genotype 1b, isolate con1; conditions: human protein as prey
T1 construct: expressed in transfected cells; host or cells: Saccharomyces cerevisiae MAV203 (IMAP1) / AH109 (IMAP2)
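Also: yeast two-hybrid screens using HCV genotype 1b proteins fused to Gal4-DB as baits against prey cDNA libraries from human spleen and foetal brain, IMAP1 via transformation and IMAP2 via mating.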

Row | Molecule | Interaction with viral protein [1] | IMAP Y2H IMAP2 (number of IST) ([2]; HCV protein NS3 as bait) | IMAP Y2H IMAP2 (number of IST) ([2]; HCV protein NS5A as bait) | IMAP Y2H IMAP2 (number of IST) ([2]; HCV protein CORE as bait)
1 | UBE1C (protein, UniProt Q8TBC4 2-463, looked up) NEDD8-activating enzyme E1 …: ADGEEPEKKRRRIEELLAEKMAVDGGCGDTGDWEGRWNHVKKFLERSGPFTHPDFEPSTESLQFLLDTCKVLVIGAGGLGCELLKNLALSGFRQIHVIDMDTIDVSNLNRQFLFRPKDIGRPKAEVAAEFLNDRVPNCNVVPHFNKIQDFNDTFYRQFHIIVCGLDSIIARRWINGMLISLLNYEDGVLDPSSIVPLIDGGTEGFKGNARVILPGMTACIECTLELYPPQVNFPMCTIASMPRLPEHCIEYVRMLQWPKEQPFGEGVPLDGDDPEHIQWIFQKSLERASQYNIRGVTYRLTQGVVKRIIPAVASTNAVIAAVCATEVFKIATSAYIPLNNYLVFNDVDGLYTYTFEAERKENCPACSQLPQNIQFSPSAKLQEVLDYLTNSASLQMKSPAITATLEGKNRTLYLQSVTSIEERTRPNLSKTLKELGLVDGQELAVADVTTPQTVLFKLHFTS | NS3 | 1 |  | 
2 | FBF1 (protein, UniProt Q8TES7 1-1133, looked up) Fas-binding factor 1: MAPKTKKGCKVTLPEKPVKLASHTRDTTGVSQMFPSSKARTKSLLGDDVFSTMAGLEEADAEVSGISEADPQALLQAMKDLDGMDADILGLKKSNSAPSKKAAKDPGKGELPNHPKPAGGAIPTKKSLPSPSSSGHQNRRFSSEDLEDPLRGLLSYDEGGITKQPPVTQSKTASDKSPSTVRDQGPSIPLTPGDTPIRKKEELLFDDGDDIMATLGFGDSPKAEKRQIGDQEGPRPARSTLDELLGRGMATKLLARPGTGEHREFKLDKKYQRPQDSEDMWGDEDFTFGAYQPTVVSSEGRQSRRQSVSRFFADSGADPKGEPGSKQSPPMASSPIQPRKGGADWLGLKDEDLDLFPASPTREAHRESSVPVTPSVPPPASQHSTPAGLPPSRAKPPTEGAGSPAKASQASKLRASKEEKEDWLSHALSRKKSQGLAREQHAGTSEGLHLAGTAGHPPSGSQPLTSTQGLEHAAAGGSSGTTARERPCVRPGVSGSPVTQNHAASALPTGSPKRGTAPGDLSATEPATCFPSTQKPTEPSVPVQPLLPESLARSLLPSTEYQKQLLAAQVQLQCSPAELQAELLHSQARLAELEAQVRKLELERAQHELLLGSLQQQHQADLELIESAHRSRIKVLETSYQQREERLRRENEELSARYLSQCQEAEQARAELTAQHQRRLAAIAQEKDQEMERLRELQRASILDMRRDHEEQLQRLKLLKDREVDAATSATSHTRSLNSIIHQMEKFSSSLHELSSRVEASHLTTSQERELGIRQRDEQLRALQERLGQQQRDMEEERSRQQEVIGKMEARLNEQSRLLEQERWRVTAEQSKAESMQRALEEQRKVTAQQMAMERAELERAKSALLEEQKSVMLKCGEERRRLAAEWAEFSAQQKLSKERAEREAERALQVDTQREGTLISLAKQAELKIRASELRAEEKQLAAERAALEQERQELRLEKERINATALRVKLRAEEVESMSKVASEKYEEGERALREAQQVQAEQQARLQAVQQQQERLRKQEQHMHQEHLSLAQQRLQLDRARQDLPSSLVGLFPRAQGPAASSQSALMPPAPTTRWCSQPPTGLDPSPLHLHARLALLRHMAEQDRDFLENEQFFLETLKKGSYNLTSHSA | NS3 | 3 |  | 
3 | TMEM63B (protein, UniProt Q5T3F8 1-832, looked up) Mechanosensitive cation …: MLPFLLATLGTTALNNSNPKDYCYSARIRSTVLQGLPFGGVPTVLALDFMCFLALLFLFSILRKVAWDYGRLALVTDADRLRRQERDRVEQEYVASAMHGDSHDRYERLTSVSSSVDFDQRDNGFCSWLTAIFRIKDDEIRDKCGGDAVHYLSFQRHIIGLLVVVGVLSVGIVLPVNFSGDLLENNAYSFGRTTIANLKSGNNLLWLHTSFAFLYLLLTVYSMRRHTSKMRYKEDDLVKRTLFINGISKYAESEKIKKHFEEAYPNCTVLEARPCYNVARLMFLDAERKKAERGKLYFTNLQSKENVPTMINPKPCGHLCCCVVRGCEQVEAIEYYTKLEQKLKEDYKREKEKVNEKPLGMAFVTFHNETITAIILKDFNVCKCQGCTCRGEPRPSSCSESLHISNWTVSYAPDPQNIYWEHLSIRGFIWWLRCLVINVVLFILLFFLTTPAIIITTMDKFNVTKPVEYLNNPIITQFFPTLLLWCFSALLPTIVYYSAFFEAHWTRSGENRTTMHKCYTFLIFMVLLLPSLGLSSLDLFFRWLFDKKFLAEAAIRFECVFLPDNGAFFVNYVIASAFIGNAMDLLRIPGLLMYMIRLCLARSAAERRNVKRHQAYEFQFGAAYAWMMCVFTVVMTYSITCPIIVPFGLMYMLLKHLVDRYNLYYAYLPAKLDKKIHSGAVNQVVAAPILCLFWLLFFSTMRTGFLAPTSMFTFVVLVITIVICLCHVCFGHFKYLSAHNYKIEHTETDTVDPRSNGRPPTAAAVPKSAKYIAQVLQDSEVDGDGDGAPGSSGDEPPSSSSQDEELLMPPDALTDTDFQSCEDSLIENEIHQ | NS3 | 1 |  | 
4 | SYNPO2 (protein, UniProt Q9UMS6 1-1093, looked up) Synaptopodin-2: MGTGDFICISMTGGAPWGFRLQGGKEQKQPLQVAKIRNQSKASGSGLCEGDEVVSINGNPCADLTYPEVIKLMESITDSLQMLIKRPSSGISEALISENENKNLEHLTHGGYVESTTLQIRPATKTQCTEFFLAPVKTEVPLAENQRSGPDCAGSLKEETGPSYQRAPQMPDSQRGRVAEELILREKVEAVQPGPVVELQLSLSQERHKGASGPLVALPGAEKSKSPDPDPNLSHDRIVHINSIPTNEKADPFLRSSKIIQISSGRELRVIQESEAGDAGLPRVEVILDCSDRQKTEGCRLQAGKECVDSPVEGGQSEAPPSLVSFAVSSEGTEQGEDPRSEKDHSRPHKHRARHARLRRSESLSEKQVKEAKSKCKSIALLLTDAPNPNSKGVLMFKKRRRRARKYTLVSYGTGELEREADEEEEGDKEDTCEVAFLGASESEVDEELLSDVDDNTQVVNFDWDSGLVDIEKKLNRGDKMEMLPDTTGKGALMFAKRRERMDQITAQKEEDKVGGTPSREQDAAQTDGLRTTTSYQRKEEESVRTQSSVSKSYIEVSHGLGHVPQQNGFSGTSETANIQRMVPMNRTAKPFPGSVNQPATPFSPTRNMTSPIADFPAPPPYSAVTPPPDAFSRGVSSPIAGPAQPPPWPQPAPWSQPAFYDSSERIASRDERISVPAKRTGILQEAKRRSTTKPMFTFKEPKVSPNPELLSLLQNSEGKRGTGAGGDSGPEEDYLSLGAEACNFMQSSSAKQKTPPPVAPKPAVKSSSSQPVTPVSPVWSPGVAPTQPPAFPTSNPSKGTVVSSIKIAQPSYPPARPASTLNVAGPFKGPQAAVASQNYTPKPTVSTPTVNAVQPGAVGPSNELPGMSGRGAQLFAKRQSRMEKYVVDSDTVQAHAARAQSPTPSLPASWKYSSNVRAPPPVAYNPIHSPSYPLAALKSQPSAAQPSKMGKKKGKKPLNALDVMKHQPYQLNASLFTFQPPDAKDGLPQKSSVKVNSALAMKQALPPRPVNAASPTNVQASSVYSVPAYTSPPSFFAEASSPVSASPVPVGIPTSPKQESASSSYFVAPRPKFSAKKSGVTIQVWKPSVVEE | NS3 | 1 |  | 
5 | NUCB1 (protein, UniProt Q02818 27-461, looked up) Nucleobindin-1: VPLERGAPNKEETPATESPDTGLYYHRYLQEVIDVLETDGHFREKLQAANAEDIKSGKLSRELDFVSHHVRTKLDELKRQEVSRLRMLLKAKMDAEQDPNVQVDHLNLLKQFEHLDPQNQHTFEARDLELLIQTATRDLAQYDAAHHEEFKRYEMLKEHERRRYLESLGEEQRKEAERKLEEQQRRHREHPKVNVPGSQAQLKEVWEELDGLDPNRFNPKTFFILHDINSDGVLDEQELEALFTKELEKVYDPKNEEDDMREMEEERLRMREHVMKNVDTNQDRLVTLEEFLASTQRKEFGDTGEGWETVEMHPAYTEEELRRFEEELAAREAELNAKAQRLSQETEALGRSQGRLEAQKRELQQAVLHMEQRKQQQQQQQGHKAPAAHPEGQLKFHPDTDDVPVPAPAGDQKEVDTSEKKLLERLPEVEVPQHL | NS3 and NS5A |  | 2 | 
6 | PRRC1 (protein, UniProt Q96M27 1-445, looked up) Protein PRRC1: MMEESGIETTPPGTPPPNPAGLAATAMSSTPVPLAATSSFSSPNVSSMESFPPLAYSTPQPPLPPVRPSAPLPFVPPPAVPSVPPLVTSMPPPVSPSTAAAFGNPPVSHFPPSTSAPNTLLPAPPSGPPISGFSVGSTYDITRGHAGRAPQTPLMPSFSAPSGTGLLPTPITQQASLTSLAQGTGTTSAITFPEEQEDPRITRGQDEASAGGIWGFIKGVAGNPMVKSVLDKTKHSVESMITTLDPGMAPYIKSGGELDIVVTSNKEVKVAAVRDAFQEVFGLAVVVGEAGQSNIAPQPVGYAAGLKGAQERIDSLRRTGVIHEKQTAVSVENFIAELLPDKWFDIGCLVVEDPVHGIHLETFTQATPVPLEFVQQAQSLTPQDYNLRWSGLLVTVGEVLEKSLLNVSRTDWHMAFTGMSRRQMIYSAARAIAGMYKQRLPPRTV | NS3 | 1 |  | 
7 | PABPN1 (protein, UniProt Q86U42 2-306, looked up) Polyadenylate-binding protein …: AAAAAAAAAAGAAGGRGSGPGRRRHLVPGAGGEAGEGAPGGAGDYGNGLESEELEPEELLLEPEPEPEPEEEPPRPRAPPGAPGPGPGSGAPGSQEEEEEPGLVEGDPGDGAIEDPELEAIKARVREMEEEAEKLKELQNEVEKQMNMSPPPGNAGPVIMSIEEKMEADARSIYVGNVDYGATAEELEAHFHGCGSVNRVTILCDKFSGHPKGFAYIEFSDKESVRTSLALDESLFRGRQIKVIPKRTNRPGISTTDRGFPRARYRARTTNYNSSRSRFYSGFNSRPRGRVYRGRARATSWYSPY | CORE |  |  | 1
8 | TBXAS1 (protein, UniProt P24557 1-533, looked up) Thromboxane-A synthase: MEALGFLKLEVNGPMVTVALSVALLALLKWYSTSAFSRLEKLGLRHPKPSPFIGNLTFFRQGFWESQMELRKLYGPLCGYYLGRRMFIVISEPDMIKQVLVENFSNFTNRMASGLEFKSVADSVLFLRDKRWEEVRGALMSAFSPEKLNEMVPLISQACDLLLAHLKRYAESGDAFDIQRCYCNYTTDVVASVAFGTPVDSWQAPEDPFVKHCKRFFEFCIPRPILVLLLSFPSIMVPLARILPNKNRDELNGFFNKLIRNVIALRDQQAAEERRRDFLQMVLDARHSASPMGVQDFDIVRDVFSSTGCKPNPSRQHQPSPMARPLTVDEIVGQAFIFLIAGYEIITNTLSFATYLLATNPDCQEKLLREVDVFKEKHMAPEFCSLEEGLPYLDMVIAETLRMYPPAFRFTREAAQDCEVLGQRIPAGAVLEMAVGALHHDPEHWPSPETFNPERFTAEARQQHRPFTYLPFGAGPRSCLGVRLGLLEVKLTLLHVLHKFRFQACPETQVPLQLESKSALGPKNGVYIKIVSR | NS3 | 1 |  | 

— US20110091994A1, “Methods for Screening Compounds for Treating and/or Preventing an Hepatitis C Virus Infection” (priority 2008, published 2011)
